Reference: patent publication US7666414B2, “Methods for treating prostate cancer using modified antibodies to prostate-specific membrane antigen” (Cornell Research Foundation, Inc., priority 2001, dated 2010)
Like-named read-outs stand apart in the source and are kept apart here. Each block holds one molecule with its values, some of them ahead of it.

Experiments:
[1] = target: T1, LNCap membrane preparation (Homo sapiens, UniProt Q04609); experiment: ELISA for binding of J415 deimmunized antibodies to LNCap membrane preparation
T1 construct: ELISA plates were coated with LNCap membrane preparation; endogenous in cells; host or cells: LNCap (LNCaP) human prostate carcinoma cells, membrane preparation
T1 sequence (Q04609 whole entry): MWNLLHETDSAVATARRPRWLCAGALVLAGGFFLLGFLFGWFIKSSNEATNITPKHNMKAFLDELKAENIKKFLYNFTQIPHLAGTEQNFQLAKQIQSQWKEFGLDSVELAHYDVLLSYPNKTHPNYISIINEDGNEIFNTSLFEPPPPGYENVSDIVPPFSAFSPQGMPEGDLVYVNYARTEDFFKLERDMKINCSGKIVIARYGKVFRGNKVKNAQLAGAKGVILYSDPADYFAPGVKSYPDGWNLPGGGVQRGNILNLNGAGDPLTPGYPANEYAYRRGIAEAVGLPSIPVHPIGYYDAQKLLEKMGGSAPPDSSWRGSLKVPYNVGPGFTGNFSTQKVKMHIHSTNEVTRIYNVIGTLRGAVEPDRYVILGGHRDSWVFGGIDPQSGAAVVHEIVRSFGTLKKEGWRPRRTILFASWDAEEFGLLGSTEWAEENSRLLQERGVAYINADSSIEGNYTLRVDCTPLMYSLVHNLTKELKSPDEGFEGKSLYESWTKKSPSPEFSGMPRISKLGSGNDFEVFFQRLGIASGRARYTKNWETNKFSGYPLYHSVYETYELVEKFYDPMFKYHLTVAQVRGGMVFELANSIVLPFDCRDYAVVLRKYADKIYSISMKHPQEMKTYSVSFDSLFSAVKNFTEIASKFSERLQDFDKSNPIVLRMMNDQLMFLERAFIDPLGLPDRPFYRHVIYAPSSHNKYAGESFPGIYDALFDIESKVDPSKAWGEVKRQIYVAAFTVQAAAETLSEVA
Procedure: The J415 deimmunized antibodies (including various combinations of the deimmunized light chain and heavy chain subunits) were tested in an ELISA for binding to LNCap membrane preparation following the protocol as detailed above. ELISA plates were coated with LNCap membrane preparation and blocked with 5% BSA in phosphate buffered saline. Doubling dilutions of the J415 chimeric antibody (murine variable heavy and light chain regions fused to human constant heavy and light chain regions, respectively) and the deimmunized antibodies were applied. Detection was with horseradish peroxidase conjugated goat anti-human IgG and donkey anti-mouse for chimeric and mouse antibodies respectively. Color was developed with o-phenylene diamine substrate.

[2] = target: prostate specific membrane antigen (Homo sapiens, UniProt Q04609); experiment: Competitive binding sites on PSMA; conditions: relative to J591, J533, E99 site
prostate specific membrane antigen, sequence (Q04609 whole entry): as above
Excerpt: To kill or ablate normal, benign hyperplastic, and cancerous prostate epithelial cells, a first antibody, e.g., a modified antibody, can be conjugated with a prodrug which is activated only when in close proximity with a prodrug activator. The prodrug activator is conjugated with a second antibody, e.g., a second modified antibody according to the present invention, preferably one that binds to a non-competing site on the prostate specific membrane antigen molecule. Whether two modified antibodies bind to competing or non-competing binding sites can be determined by conventional competitive binding assays. […] Monoclonal antibody J415, on the other hand, binds to a binding site that is non-competing with the site to which J591, J533, and E99 bind. Thus, for example, the first modified antibody can be one of J591, J533, and E99, and the second modified antibody can be J415. Alternatively, the first modified antibody can be J415, and the second modified antibody can be one of J591, J533, and E99. Drug-prodrug pairs suitable for use in the practice of the present invention are described in Blakely et al., “ZD2767, an Improved System for Antibody-directed Enzyme Prodrug Therapy That Results in Tumor Regressions in Colorectal Tumor Xenografts,” (1996) Cancer Research, 56:3287-3292, which is hereby incorporated by reference.

[3] = test system: PSMA-positive human LNCaP tumors; experiment: Biodistribution of 131I labeled MAbs in nude mice bearing LNCaP tumors; conditions: mouse, in vivo
Procedure: (§1) Prior to use, the cells were trypsinized, counted and suspended in Matrigel (Collaborative Biomedical Products, Bedford, Mass.). Nu/Nu Balb C mice 8-10 weeks of age were inoculated, in the right and left flanks, with a suspension of 5×10^6 LNCaP cells in Matrigel (BD Biosciences, Bedford Mass.). After a period of 14-18 days, tumors (100-300 mg) had developed. The PSMA-negative DU145 and PC3 cells were implanted in nude mice in an identical manner.
(§2) The PSMA-positive and PSMA-negative tumor bearing mice were injected, via the tail vein, with 80 KBq of the iodinated MAb (400 MBq/mg) in 200 μL of PBS (pH 7.4, 0.2% BSA). Groups of animals (3-8/group) were sacrificed after 2, 4 or 6 days. The major organs and tumors were recovered. The tissue samples were weighed and counted, with appropriate standards in an automatic NaI(Tl) counter. These measured relative activity data (cpm) were background corrected and expressed as a percentage of the injected dose per gram (% ID/g). […] J415, J591 and 7E11 were labeled with ^111In (100 MBq/mg). 80 KBq of the ^111In labeled MAbs were injected in groups of animals. The % ID/g in various organs and tumor tissues was determined at 2-6 days post injection in a similar way as described for ^131I labeled MAbs.

[4] = test system: PSMA-positive human LNCaP tumors; design: species or system nude mice; conditions: mouse, in vivo
Procedure: as §1, §2
For the imaging studies, animals were injected with 2 MBq of ^111In-DOTA-J591. […]

binding to LNCap as compared to the chimeric antibody [1]: equivalent binding
B1: DIVH4/DIVK5: deimmunized J415 heavy chain version 4 combined with deimmunized J415 light chain version 5 (antibody, V domains shown)
VH: EVKLEESGGGLVQPGGSMKISCVASGFTFSNYWMNWVRQSPEKGLEWVAEIRSQSNNFATHYAESVKGRVIISRDDSKSSVYLQMNSLRAEDTAVYYCTRRWNNFWGQGTTVTVSS
VL: NIVMTQFPKSMSASAGERMTLTCKASENVGTYVSWYQQKPTQSPKMLIYGASNRFTGVPDRFSGSGSGTDFILTISSVQAEDLVDYYCGQSYTFPYTFGGGTKLEMK

binding site on the prostate specific membrane antigen molecule [2]: non-competing
B2: J415: murine monoclonal antibody to human PSMA, hybridoma ATCC HB-12109 (antibody, V domains shown)
VH: EVKLEESGGGLVQPGGSMKLSCVASGFTFSNYWMNWVRQSPEKGLEWVAEIRSQSNNFATHYAESVKGRVIISRDDSKSSVYLQMNNLRAEDTGIYYCTRRWNNFWGQGTTLTVSS
VL: NIVMTQFPKSMSISVGERVTLTCKASENVGTYVSWYQQKPEQSPKMLIYGASNRFTGVPDRFTGSGSATDFILTISSVQTEDLVDYYCGQSYTFPYTFGGGTKLEMK
blood activity [3]: significantly lower compared to that of 7E11 | tumor uptake [3]: 12.2±3.24 % injected dose/gram | tumor/blood and tumor/muscle ratios [3]: significantly higher | blood activity [4]: 2.63±0.23 % ID/g | tumor/blood ratios [4]: significantly higher

binding site on the prostate specific membrane antigen molecule [2]: bind to competing binding sites
B3: E99: murine monoclonal antibody to human PSMA, hybridoma ATCC HB-12101 (antibody, V domains shown)
VH: QVQLKESGPGLVASSQSLSITCTVSGFSLTAYGINWVRQPPGKGLEWLGVIWPDGNTDYNSTLKSRLNIFKDNSKNQVFLKMSSFQTDDTARYFCARDSYGNFKRGWFDFWGQGTTLTVSS
VL: NIVMTQSQKFMSTSPGDRVRVTCKASQNVGSDVAWYQAKPGQSPRILIYSTSYRYSGVPDRFTAYGSGTDFTLTITNVQSEDLTEYFCQQYNSYPLTFGAGTKLELK

binding site on the prostate specific membrane antigen molecule [2]: bind to competing binding sites
B4: J533: murine monoclonal antibody to human PSMA, hybridoma ATCC HB-12127 (antibody, V domains shown)
VH: EVQLQQSGPELVKPGASVKMSCKASGYTFTGYVMHWVKQKPGQVLEWIGYINPYNDVTRYNGKFKGKATLTSDKYSSTAYMELSGLTSEDSAVYYCARGENWYYFDSWGRGATLTVSS
VL: DIVLTQSPASLAVSLGQRATISCRASESIDSYDNTFMHWYQQKPGQPPNLLIFRASILESGIPARFSGSGSGTDFTLTIYPVEADDVATYYCHQSIEDPYTFGGGTKLEIK
